The supplement of paper PMC10567573

B1: DVL3 (parent)
chain: YNPHPGFPELGYSYGGGSASSQHS
B2: POMT2 (parent)
chain: YHEAPMTRKHYQVTGYGINGTGDS

Variants of: B1
Assay: protein stability index of a GFP-peptide fusion (GPS, HEK-293T) (PSI 1-6); higher = more stable
Conditions: c terminus: a fixed tail appended
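Note: lentivirally expressed fusions sorted by FACS into six bins by GFP to DsRed ratio, PSI derived from sequencing read proportions per bin multiplied by bin number.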

In order of falling protein stability index:
1. YNPHPGFPEEGYSYGGGSASSQHS  4.41
2. TNPHPGFPELGYSYGGGSASSQHS  4.25
3. DNPHPGFPELGYSYGGGSASSQHS  4.18
4. NNPHPGFPELGYSYGGGSASSQHS  4.11
5. YNPHPGFPELGNSYGGGSASSQHS  3.96
6. LNPHPGFPELGYSYGGGSASSQHS  3.88
7. YNPHPGFPELGESYGGGSASSQHS  3.79
8. YNPHPGFPELGYSAGGGSASSQHS  3.77
9. YNPHPGFPENGYSYGGGSASSQHS  3.74
10. YNPHPGFPELGYEYGGGSASSQHS  3.71
11. YNPHPGKPELGYSYGGGSASSQHS  3.68
12. YNPHDGFPELGYSYGGGSASSQHS  3.67
13. YNPHPGFPERGYSYGGGSASSQHS  3.64
14. YDPHPGFPELGYSYGGGSASSQHS  3.64
15. YNPKPGFPELGYSYGGGSASSQHS  3.61
16. YNPHPGFPELGYSYGGGSGSSQHS  3.57
17. YNPHPGFPEDGYSYGGGSASSQHS  3.55
18. RNPHPGFPELGYSYGGGSASSQHS  3.52
19. YNPHPGFPELGYDYGGGSASSQHS  3.52
20. YNPHPGFPELGGSYGGGSASSQHS  3.51
21. YNLHPGFPELGYSYGGGSASSQHS  3.46
22. YNPHPGFPELGYSYGAGSASSQHS  3.45
23. YNPHPGFPELGYSDGGGSASSQHS  3.38
24. YHPHPGFPELGYSYGGGSASSQHS  3.33
25. YNPHPGFPELGYSYEGGSASSQHS  3.33
26. YNPHPGFPELGYSPGGGSASSQHS  3.32
27. YNPHPGFPELGHSYGGGSASSQHS  3.26
28. YNPHQGFPELGYSYGGGSASSQHS  3.26
29. YNPHPGFPELGYSTGGGSASSQHS  3.24
30. YNPHPGFPELRYSYGGGSASSQHS  3.24
31. YNPHPGFPELGYSYGGCSASSQHS  3.22
32. YNPHPGFPEAGYSYGGGSASSQHS  3.17
33. YNPHPGFPELGYSQGGGSASSQHS  3.15
34. YNPHPGFPELGYSYGGGSASSQDS  3.14
35. YNPHPDFPELGYSYGGGSASSQHS  3.14
36. YNPHPGFPELGYSYGGGSASSQHD  3.13
37. YNPHPGFPLLGYSYGGGSASSQHS  3.13
38. VNPHPGFPELGYSYGGGSASSQHS  3.12
39. YNPHPGFPELGYSYGGGSAVSQHS  3.12
40. YNPHPGFTELGYSYGGGSASSQHS  3.11
41. YNVHPGFPELGYSYGGGSASSQHS  3.08
42. YNTHPGFPELGYSYGGGSASSQHS  3.08
43. YNPHPGFPELGYNYGGGSASSQHS  3.08
44. YNPHPGFPELGYSYGGGSNSSQHS  3.07
45. YNPHPGFPELGYSYTGGSASSQHS  3.05
46. YNPHPGFPELGYSYGGGSASSQMS  3.04
47. YNPHPGFPEPGYSYGGGSASSQHS  3.04
48. YNPHPGFPELGYSYGGGSRSSQHS  3.04
49. YNPHPGFPELGYSYGQGSASSQHS  3.02
50. YNPHPGVPELGYSYGGGSASSQHS  3.01
51. YNMHPGFPELGYSYGGGSASSQHS  3.01
52. YNPHPGFPELGYSYGGGSASDQHS  3.01
53. YNPHPGGPELGYSYGGGSASSQHS  3
54. YNPHPGFPELGYSYGNGSASSQHS  2.99
55. YNPHPGFPETGYSYGGGSASSQHS  2.98
56. YNPHPGFPELGYSYGSGSASSQHS  2.95
57. YNPHPGFPELGYKYGGGSASSQHS  2.94
58. YNPHPNFPELGYSYGGGSASSQHS  2.93
59. YNPHPGFPELGYSYGGGSASSQIS  2.9
60. YNPHPGFPELGYSYGGGSASSQKS  2.87
61. YYPHPGFPELGYSYGGGSASSQHS  2.87
62. YNPHPGFPELGYSYGGGSASSQLS  2.86
63. YNPHPGFPELGYSMGGGSASSQHS  2.86
64. YNPHPGFPELGYSYGGGSASRQHS  2.86
65. YNPHPGCPELGYSYGGGSASSQHS  2.85
66. YNPHPGFPELGYSYGGRSASSQHS  2.82
67. YNPRPGFPELGYSYGGGSASSQHS  2.8
68. YNNHPGFPELGYSYGGGSASSQHS  2.79
69. YNPHPGFPELGYSYGGGSASSQPS  2.79
70. YNPHPGFPELGYSYGGGSASQQHS  2.79
71. YNPHPGFPELGYSYGGGSSSSQHS  2.79
72. YNPHPGFPELGYSYGGGSASSQGS  2.78
73. YNPHPAFPELGYSYGGGSASSQHS  2.78
74. YNPLPGFPELGYSYGGGSASSQHS  2.77
75. YNPHPGFPELGYSYGGGSASSQHK  2.76
76. YNPHPGFPELAYSYGGGSASSQHS  2.76
77. YNEHPGFPELGYSYGGGSASSQHS  2.75
78. YNPHNGFPELGYSYGGGSASSQHS  2.75
79. YNPHPGFPELGYSYGGGSANSQHS  2.74
80. YNPHPGFPELGYSYGPGSASSQHS  2.74
81. YNPHPGFPELGYSYGHGSASSQHS  2.72
82. YNPHPGFPELGYSYGGGVASSQHS  2.72
83. YNPHPGFPELNYSYGGGSASSQHS  2.72
84. YNPHPGFRELGYSYGGGSASSQHS  2.7
85. YNPHPGFPELGYSLGGGSASSQHS  2.69
86. YNPMPGFPELGYSYGGGSASSQHS  2.69
87. YNPHPGFPMLGYSYGGGSASSQHS  2.69
88. YNPHPGFPELGRSYGGGSASSQHS  2.68
89. YNPHPGFPELGYSYGGGGASSQHS  2.68
90. YNPHPGFPELGYSYGGGSAKSQHS  2.65
91. YNPHPGFPELGYSYGRGSASSQHS  2.63
92. YNPHPGFPELGYSYQGGSASSQHS  2.63
93. YNPHPGFPELGYSYGGNSASSQHS  2.6
94. YNPHPGFPELGYSYGGGSASSNHS  2.6
95. YNPHPGSPELGYSYGGGSASSQHS  2.59
96. YNPHPGFPELGYHYGGGSASSQHS  2.59
97. YNPHLGFPELGYSYGGGSASSQHS  2.59
98. YNPHPGFPELGYSYGGGFASSQHS  2.58
99. YNPHPGFPELGYSYGGGSMSSQHS  2.57
100. YNPHPGFPELGYSYGTGSASSQHS  2.57
101. YNPHPGFPELGYSYMGGSASSQHS  2.57
102. YNPHPGFPELGYGYGGGSASSQHS  2.55
103. YNPIPGFPELGYSYGGGSASSQHS  2.51
104. YNPHPLFPELGYSYGGGSASSQHS  2.48
105. YNPWPGFPELGYSYGGGSASSQHS  2.44
106. YNPHPGFPELGYSYAGGSASSQHS  2.43
107. YNPHPGFPELGYSYGGGSASSQHV  2.41
108. YNPHPGFPELGYSYGGGSASSQHE  2.41
109. YNPHVGFPELGYSYGGGSASSQHS  2.41
110. YNPHPGFPELGYSFGGGSASSQHS  2.4
111. YNPHPGFPELGYSYGGGSYSSQHS  2.4
112. YNPHPGFHELGYSYGGGSASSQHS  2.38
113. YNPHPIFPELGYSYGGGSASSQHS  2.38
114. YNPHPGFPELGYSYGGGSASSQFS  2.37
115. YIPHPGFPELGYSYGGGSASSQHS  2.37
116. YNPHYGFPELGYSYGGGSASSQHS  2.35
117. YNPTPGFPELGYSYGGGSASSQHS  2.34
118. YNPHPGFPELGYSYGGGSASSQHA  2.33
119. YNPHPGFYELGYSYGGGSASSQHS  2.33
120. YQPHPGFPELGYSYGGGSASSQHS  2.33
121. YNPHPGFPELGYSYGYGSASSQHS  2.32
122. YNPHGGFPELGYSYGGGSASSQHS  2.32
123. YNPHMGFPELGYSYGGGSASSQHS  2.31
124. YNPHPGFPELGYSYGGGSHSSQHS  2.3
125. YNPHPGFPELGYSYHGGSASSQHS  2.3
126. YNPHPGFPELPYSYGGGSASSQHS  2.29
127. YNPHPGFPELWYSYGGGSASSQHS  2.29
128. YNPHPTFPELGYSYGGGSASSQHS  2.28
129. YNPHPGFPELGCSYGGGSASSQHS  2.27
130. YNPHPGFPELGYSYGGGTASSQHS  2.26
131. YNPHPGFPELGYSYLGGSASSQHS  2.24
132. YNPHPGFPELGYSYVGGSASSQHS  2.22
133. YNPHPGFPELGYSYGGGSASSQWS  2.19
134. YNPHPGFPELGWSYGGGSASSQHS  2.19
135. YNPHPGFPHLGYSYGGGSASSQHS  2.19
136. YNPHPGFPELGYSYGGGSLSSQHS  2.17
137. FNPHPGFPELGYSYGGGSASSQHS  2.16
138. YNPHPGFPGLGYSYGGGSASSQHS  2.16
139. YNPHPGFPELGYSYGGHSASSQHS  2.15
140. YNPHPGFPELGYSYGGLSASSQHS  2.14
141. YNPHPGFPELGYSYGGGSASSCHS  2.13
142. YNPHPGFPELGYSYGGGYASSQHS  2.11
143. YNPHPGFPELGYSYCGGSASSQHS  2.11
144. YNPHPGFPELGYSYGGGSAISQHS  2.08
145. YNPAPGFPELGYSYGGGSASSQHS  2.06
146. YNPHPGFPELGYSYGGGSASSWHS  2.06
147. YNPHPGFPELGYSYGWGSASSQHS  2.04
148. YNPHPGFPQLGYSYGGGSASSQHS  2.04
149. YNPHPGFPELLYSYGGGSASSQHS  2.04
150. YNPHPGFPELGYSYGIGSASSQHS  2
151. YNPHPGFPELGPSYGGGSASSQHS  1.99
152. YNPHPGFPELGYSYGGGSAWSQHS  1.95
153. YNPHPGFPELGYSYGGGLASSQHS  1.83
154. YNPHPGFPELGYSYGGGSASSQHT  1.78
155. YNPHPGFIELGYSYGGGSASSQHS  1.71
156. YNPHPGFPELGYSYGGWSASSQHS  1.69
157. YNPHPGFPELGYSYGGGSWSSQHS  1.4
158. YNPHPGFPILGYSYGGGSASSQHS  1.18

Variants of: B2
Assay: as above
Conditions: c terminus: a fixed tail appended

In order of falling protein stability index:
1. YHEAPMTRKHYQVTGYGINGTGDK  2.57
2. YHEAPMTRKHYQVTGYGINGTGDG  2.57
3. YHEAPMTRKHYQVTGYGINGTGDV  2.44
4. YHEAPMTRKHYQVTGYGINGTGQS  2.44
5. YHEAPMTRKHYQVTGYGINGTGVS  2.42
6. YHEAPMTRKHYQVTGYGINGTGDD  2.41
7. YHEAPMTRKHYQVTGYGINGTGDE  2.29
8. YHEAPMTRKHYQVTGYGINGTGDP  2.23
9. YHEAPMTRKHYQVTGYGINGTGDR  2.17
10. YHEAPMTRKHYQVTGYGINGTGNS  2.17
11. YHEAPMTRKHYQVTGYGINGTGDI  2.16
12. YHEAPMTRKHYQVTGYGINGTGDA  2.15
13. YHEAPMTRKHYQVTGYGINGTGSS  2.14
14. YHEAPMTRKHYQVTGYGINGTGDN  2.11
15. YHEAPMTRKHYQVTGYGINGTGDY  2.1
16. YHEAPMTRKHYQVTGYGINGTGPS  2.02
17. YHEAPMTRKHYQVTGYGINGTGDH  1.99
18. YHEAPMTRKHYQVTGYGINGTGDT  1.98
19. YHEAPMTRKHYQVTGYGINGTGLS  1.95
20. YHEAPMTRKHYQVTGYGINGTGTS  1.85
21. YHEAPMTRKHYQVTGYGINGTGDC  1.81
22. YHEAPMTRKHYQVTGYGINGTGDM  1.79
23. YHEAPMTRKHYQVTGYGINGTGDF  1.76
24. YHEAPMTRKHYQVTGYGINGTGDQ  1.68
25. YHEAPMTRKHYQVTGYGINGTGYS  1.67
26. YHEAPMTRKHYQVTGYGINGTGMS  1.66
27. YHEAPMTRKHYQVTGYGINGTGDL  1.64
28. YHEAPMTRKHYQVTGYGINGTGDW  1.49
29. YHEAPMTRKHYQVTGYGINGTGRS  1.25
30. YHEAPMTRKHYQVTGYGINGTGWS  1.24
